From patent US20190144884A1 (University of Pennsylvania, published 2019) come the findings set out here.

The data set concerns the molecule itself. The experiment in a line: native gel, in-gel butyrylcholinesterase activity staining of mouse serum (self-association: dimer, tetramer).

B1: human butyrylcholinesterase (hBChE) expressed from AAV8.UbC.hIL2.BChE C1.IRES.PRIMA1.SV40 vector (enzyme)
chain: HTEDDIIIATKNGKVRGMNLTVFGGTVTAFLGIPYAQPPLGRLRFKKPQSLTKWSDIWNATKYANSCCQNIDQSFPGFHGSEMWNPNTDLSEDCLYLNVWIPAPKPKNATVLIWIYGGGFQTGTSSLHVYDGKFLARVERVIVVSMNYRVGALGFLALPGNPEAPGNMGLFDQQLALQWVQKNIAAFGGNPKSVTLFGESAGAASVSLHLLSPGSHSLFTRAILQSGSFNAPWAVTSLYEARNRTLNLAKLTGCSRENETEIIKCLRNKDPQEILLNEAFVVPYGTPLSVNFGPTVDGDFLTDMPDILLELGQFKKTQILVGVNKDEGTAFLVYGAPGFSKDNNSIITRKEFQEGLKIFFPGVSEFGKESILFHYTDWVDDQRPENYREALGDVVGDYNFICPALEFTKKFSEWGNNAFFYYFEHRSSKLPWPEWMGVMHGYEIEFVFGLPLERRDNYTKAEEILSRSIVKRWANFAKYGNPNETQNNSTSWPVFKSTEQKYLTLNTESTRIMTKLRAQQCRFWTSFFPKVLEMTGNIDEAEWEWKAGFHRWNNYMMDWKNQFNDYTSKKESCVGL
notes: Secreted into the serum of vector-injected RAG KO mice; also called hBuChE; Hu BChE
As for B1, the binding result is given as “binds”.
